Data taken from patent publication US20220298260A1 (MYTHIC THERAPEUTICS, published 2022).
Changes are numbered by the printed parent chain.

B1: MYT2185 (antibody, V domains shown)
VH: EVQLVESGGGVVQPGRSLRLSCSASHFTFSGYGLSWVRQAPGKGLEWVAMISSGGSYTYYADSVKGRFAISRDNAKNTLFLQMDSLRPEDTGVYFCARHGDDPAWFAYWGQGTPVTVSS
VL: DIQLTQSPSSLSASVGDRVTITCSVSSSISSNNLHWYQQKPGKAPKPWIYGTSNLASGVPSRFSGSGSGTDYTFTISSLQPEDIATYYCQQWSSYPYMYTFGQGTKVEIK
notes: IgG
B2: MYT2214 (antibody, V domains shown)
VH: B1 VH with H26G, H99A
VL: B1 VL
notes: IgG
B3: MYT2211 (antibody, V domains shown)
VH: B1 VH with H26G, G66H
VL: B1 VL
notes: IgG
B4: MYT4528 (antibody, V domains shown)
VH: B1 VH with H26G
VL: B1 VL with H35A
notes: IgG
B5: MYT2205 (antibody, V domains shown)
VH: B1 VH with H26G, Y60H
VL: B1 VL
notes: IgG
B6: MYT4521 (antibody, V domains shown)
VH: B1 VH with H26G
VL: B1 VL with S28H
notes: IgG
B7: MYT4522 (antibody, V domains shown)
VH: B1 VH with H26G
VL: B1 VL with I29H
notes: IgG
B8: MYT4527 (antibody, V domains shown)
VH: B1 VH with H26G
VL: B1 VL with L34H
notes: IgG
B9: MYT4524 (antibody, V domains shown)
VH: B1 VH with H26G
VL: B1 VL with S31H
notes: IgG
B10: MYT2198 (antibody, V domains shown)
VH: B1 VH with H26G, S53H
VL: B1 VL
notes: IgG
B11: MYT4523 (antibody, V domains shown)
VH: B1 VH with H26G
VL: B1 VL with S30H
notes: IgG
B12: MYT4529 (antibody, V domains shown)
VH: B1 VH with H26G
VL: B1 VL with G51H
notes: IgG
B13: MYT2201 (antibody, V domains shown)
VH: B1 VH with H26G, S56H
VL: B1 VL
notes: IgG
B14: MYT2186 (antibody, V domains shown)
VH: B1 VH with H26G, F27H
VL: B1 VL
notes: IgG
B15: MYT2220 (antibody, V domains shown)
VH: B1 VH with H26G, W105H
VL: B1 VL
notes: IgG
B16: MYT2187 (antibody, V domains shown)
VH: B1 VH with H26G, T28H
VL: B1 VL
notes: IgG
B17: MYT2222 (antibody, V domains shown)
VH: B1 VH with H26G, A107H
VL: B1 VL
notes: IgG
B18: MYT2193 (antibody, V domains shown)
VH: B1 VH with H26G, L34H
VL: B1 VL
notes: IgG
B19: MYT2223 (antibody, V domains shown)
VH: B1 VH with H26G, Y108H
VL: B1 VL
notes: IgG
B20: MYT2206 (antibody, V domains shown)
VH: B1 VH with H26G, A61H
VL: B1 VL
notes: IgG
B21: MYT2218 (antibody, V domains shown)
VH: B1 VH with H26G, P103H
VL: B1 VL
notes: IgG
B22: MYT2199 (antibody, V domains shown)
VH: B1 VH with H26G, G54H
VL: B1 VL
notes: IgG
B23: MYT2203 (antibody, V domains shown)
VH: B1 VH with H26G, T58H
VL: B1 VL
notes: IgG
B24: MYT2191 (antibody, V domains shown)
VH: B1 VH with H26G, Y32H
VL: B1 VL
notes: IgG
B25: MYT2192 (antibody, V domains shown)
VH: B1 VH with H26G, G33H
VL: B1 VL
notes: IgG
B26: MYT2208 (antibody, V domains shown)
VH: B1 VH with H26G, S63H
VL: B1 VL
notes: IgG
B27: MYT2204 (antibody, V domains shown)
VH: B1 VH with H26G, Y59H
VL: B1 VL
notes: IgG
B28: MYT2188 (antibody, V domains shown)
VH: B1 VH with H26G, F29H
VL: B1 VL
notes: IgG
B29: MYT4526 (antibody, V domains shown)
VH: B1 VH with H26G
VL: B1 VL with N33H
notes: IgG
B30: MYT2189 (antibody, V domains shown)
VH: B1 VH with H26G, S30H
VL: B1 VL
notes: IgG
B31: MYT4520 (antibody, V domains shown)
VH: B1 VH with H26G
VL: B1 VL with S27H
notes: IgG
B32: MYT2209 (antibody, V domains shown)
VH: B1 VH with H26G, V64H
VL: B1 VL
notes: IgG
B33: MYT2216 (antibody, V domains shown)
VH: B1 VH with H26G, D101H
VL: B1 VL
notes: IgG
B34: MYT2202 (antibody, V domains shown)
VH: B1 VH with H26G, Y57H
VL: B1 VL
notes: IgG
B35: MYT2210 (antibody, V domains shown)
VH: B1 VH with H26G, K65H
VL: B1 VL
notes: IgG
B36: MYT2190 (antibody, V domains shown)
VH: B1 VH with H26G, G31H
VL: B1 VL
notes: IgG
B37: MYT2207 (antibody, V domains shown)
VH: B1 VH with H26G, D62H
VL: B1 VL
notes: IgG
B38: MYT4513 (antibody, V domains shown)
VH: EVQLVESGGGLVQPGGSLRLSCAASGFNIRTQSIHWVRQAPGKGLEWIGDIFPIDGITDYADSVKGRFTISADTSKNTAYLQMNSLRAEDTAVYYCARGSWSWPSGMDYYLDYWGQGTLVTVSS
VL: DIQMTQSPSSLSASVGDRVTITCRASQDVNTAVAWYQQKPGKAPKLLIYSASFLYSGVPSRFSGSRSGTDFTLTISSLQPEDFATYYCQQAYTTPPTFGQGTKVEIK
notes: IgG
B39: MYT4516 (antibody, V domains shown)
VH: B38 VH
VL: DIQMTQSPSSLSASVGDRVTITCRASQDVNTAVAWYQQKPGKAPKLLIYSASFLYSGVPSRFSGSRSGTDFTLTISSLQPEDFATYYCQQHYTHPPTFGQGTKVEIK
notes: IgG
B40: MYT4519 (antibody, V domains shown)
VH: B38 VH
VL: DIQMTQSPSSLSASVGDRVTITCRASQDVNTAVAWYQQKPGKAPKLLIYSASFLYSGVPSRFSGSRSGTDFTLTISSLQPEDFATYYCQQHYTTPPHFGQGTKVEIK
notes: IgG
B41: MYT4515 (antibody, V domains shown)
VH: B38 VH
VL: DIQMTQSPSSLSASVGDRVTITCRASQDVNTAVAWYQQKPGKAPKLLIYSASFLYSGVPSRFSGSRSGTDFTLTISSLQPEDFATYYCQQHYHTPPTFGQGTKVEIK
notes: IgG
B42: MYT4517 (antibody, V domains shown)
VH: B38 VH
VL: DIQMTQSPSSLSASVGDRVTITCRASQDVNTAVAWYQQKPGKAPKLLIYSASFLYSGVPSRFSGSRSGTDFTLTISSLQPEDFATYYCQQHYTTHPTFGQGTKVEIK
notes: IgG
B43: MYT4518 (antibody, V domains shown)
VH: B38 VH
VL: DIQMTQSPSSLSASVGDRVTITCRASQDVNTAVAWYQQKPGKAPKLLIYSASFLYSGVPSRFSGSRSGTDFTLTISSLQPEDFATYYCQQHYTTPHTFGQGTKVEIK
notes: IgG
B44: MYT4514 (antibody, V domains shown)
VH: B38 VH
VL: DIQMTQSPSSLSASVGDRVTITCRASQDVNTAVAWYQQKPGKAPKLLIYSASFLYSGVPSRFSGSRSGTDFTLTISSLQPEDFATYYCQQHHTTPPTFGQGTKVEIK
notes: IgG

What follows are binders tested against T1, FOLR1 (R&D Systems, Cat #5646-FR) (human, UniProt P15328 25-233) (assay: BLI, IgG on anti-human Fc sensor, 50 nM FOLR1).
T1 construct: Bought soluble protein; also called Folate Receptor 1
T1 sequence (P15328 25-233 limits assumed): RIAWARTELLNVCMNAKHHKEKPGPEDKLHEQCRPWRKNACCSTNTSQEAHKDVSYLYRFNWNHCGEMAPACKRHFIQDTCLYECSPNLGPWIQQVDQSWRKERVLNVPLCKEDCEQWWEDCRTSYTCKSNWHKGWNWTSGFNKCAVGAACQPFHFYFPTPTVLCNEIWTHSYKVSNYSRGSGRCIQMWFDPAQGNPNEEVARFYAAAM

Binding result, binds:
B1
B2
B3
B4
B5
B6
B7
B8
B9
B10
B11
B12
B13
B14
B15
B16
B17
B18
B19
B20
B21
B22
B23
B24
B25
B26
B27
B28
B29
B30
B31
B32
B33
B34
B35
B36
B37
B38
B39
B40
B41
B42
B43
B44
